The target of experiment [1] is T1, human IL-17 receptor (IL-17RA) on transfected cells (human, UniProt Q96F46 33-320).
T1 construct: it may not be the full-length receptor; also called hIL-17RA
T1 sequence: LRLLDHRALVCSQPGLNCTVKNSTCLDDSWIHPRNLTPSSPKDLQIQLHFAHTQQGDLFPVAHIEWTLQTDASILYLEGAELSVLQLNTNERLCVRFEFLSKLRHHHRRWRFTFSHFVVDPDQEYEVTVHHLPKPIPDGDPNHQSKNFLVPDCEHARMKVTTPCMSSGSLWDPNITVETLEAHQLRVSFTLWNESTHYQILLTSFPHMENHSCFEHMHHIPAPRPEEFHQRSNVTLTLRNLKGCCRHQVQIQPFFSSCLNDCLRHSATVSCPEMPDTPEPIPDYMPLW
In words: FACS, biotinylated cytokine on stably transfected BHK cells.

Experiment [2] has as its target T2, human IL-17RC, x1 splice variant, on transfected cells (human, UniProt Q8NAC3 21-791).
T2 construct: Expressed on BHK, 293F or NIH3T3 cells; also called hIL-17RC; hIL-17RC (x1)
T2 sequence: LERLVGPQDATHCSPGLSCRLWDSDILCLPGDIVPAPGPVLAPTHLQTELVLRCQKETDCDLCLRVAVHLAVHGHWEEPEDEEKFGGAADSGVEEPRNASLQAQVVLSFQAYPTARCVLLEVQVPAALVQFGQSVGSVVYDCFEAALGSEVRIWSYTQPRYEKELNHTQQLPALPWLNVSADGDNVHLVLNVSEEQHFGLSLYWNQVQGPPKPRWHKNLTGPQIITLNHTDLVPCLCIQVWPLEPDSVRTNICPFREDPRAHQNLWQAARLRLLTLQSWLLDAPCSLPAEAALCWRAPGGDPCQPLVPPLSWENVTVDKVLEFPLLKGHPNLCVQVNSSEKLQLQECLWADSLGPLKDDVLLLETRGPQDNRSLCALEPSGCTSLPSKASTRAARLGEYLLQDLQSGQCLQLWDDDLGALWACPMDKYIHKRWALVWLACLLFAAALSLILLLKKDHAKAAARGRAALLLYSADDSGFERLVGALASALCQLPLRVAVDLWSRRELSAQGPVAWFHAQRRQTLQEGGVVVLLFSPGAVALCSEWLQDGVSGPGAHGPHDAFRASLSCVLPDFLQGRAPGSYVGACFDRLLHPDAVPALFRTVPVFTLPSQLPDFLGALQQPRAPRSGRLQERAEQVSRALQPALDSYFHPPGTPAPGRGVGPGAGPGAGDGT
In words: competition, cold competitor vs 125I-IL-17A on BHK hIL-17RC cells. On the procedure: Cold competitors were added in 100 fold molar excess. […] Wells were incubated on ice for 1-hour followed by two washes with PBS (Invitrogen 20012-027) and one wash with a high salt solution (1.5M NaCL, 50 mM HEPES pH 7.4). Wells were extracted with 500 ul of 0.8M NaOH for 30 min. at room temperature and counts per minute were measured in a gamma counter (Packard Cobra II A5005).

In experiment [3] the target is T2, human IL-17RC, x1 splice variant, on …. In words: FACS, biotinylated cytokine on transiently transfected 293F cells. The text has this:
(§1) However, the other splice variants tested either included or excluded hIL-17RC exon 12. These variants were designated hIL-17RCx1 (identical in exon composition to mouse x1 above), hIL-17RCx4 (identical in exon composition to mouse x4 above), hIL-17RCx2, and hIL-17RCx7.
In general terms: Flow cytometry measures light scatter and fluorescence of single cells or particles in a stream.

The target in experiment [4] is T3, human IL-17RC, x4 splice variant, on transfected cells (human, UniProt Q8NAC3 21-791).
T3 construct: Expressed on 293F, BHK or NIH3T3 cells; also called hIL-17RCx4; hIL-17RCX4
T3 sequence: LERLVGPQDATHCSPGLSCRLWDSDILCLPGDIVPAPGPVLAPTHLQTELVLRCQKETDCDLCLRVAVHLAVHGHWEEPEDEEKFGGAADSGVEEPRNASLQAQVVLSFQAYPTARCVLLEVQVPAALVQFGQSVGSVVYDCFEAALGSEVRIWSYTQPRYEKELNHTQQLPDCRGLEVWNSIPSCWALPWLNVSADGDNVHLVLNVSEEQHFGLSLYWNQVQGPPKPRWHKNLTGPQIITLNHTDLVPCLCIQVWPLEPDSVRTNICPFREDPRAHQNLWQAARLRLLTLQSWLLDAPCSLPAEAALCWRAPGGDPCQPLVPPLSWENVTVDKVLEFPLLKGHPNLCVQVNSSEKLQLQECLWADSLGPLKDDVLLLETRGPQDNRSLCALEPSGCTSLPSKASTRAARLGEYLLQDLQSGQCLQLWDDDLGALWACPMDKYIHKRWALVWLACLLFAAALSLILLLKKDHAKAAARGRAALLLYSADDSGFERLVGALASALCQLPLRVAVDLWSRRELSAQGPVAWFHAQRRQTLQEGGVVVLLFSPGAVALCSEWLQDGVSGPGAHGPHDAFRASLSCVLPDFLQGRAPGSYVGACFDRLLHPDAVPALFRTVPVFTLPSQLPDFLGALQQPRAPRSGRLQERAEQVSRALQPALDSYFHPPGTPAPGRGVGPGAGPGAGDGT
Described as above.
Excerpt: as §1

For the next experiment, the target named is T4, human IL-17A (human, UniProt Q16552 24-155).
T4 construct: also called hIL-17A; hIL17A
T4 sequence: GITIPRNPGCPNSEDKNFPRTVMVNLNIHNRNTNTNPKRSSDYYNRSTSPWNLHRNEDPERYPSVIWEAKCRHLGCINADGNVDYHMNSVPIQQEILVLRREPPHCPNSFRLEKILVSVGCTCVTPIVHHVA
Kind of experiment: cell-based competition binding, FACS. As to the method: (§2) The biotinylation of the ligand allows for FACS detection using a secondary Streptavidin conjugated fluorophore. A reduction in cell bound ligand over a titration of the soluble receptor is recorded as a reduction in the mean fluorescence of the cells. Biotinylated ligands are individually pre-mixed at 1 ug/ml with titrating amounts of soluble receptor in staining media (HBSS+1% BSA+0.1% NaAzide+10 mM HEPES) in 100 ul volumes and incubated at RT for 15 minutes. A BHK cell line stably transfected with full length IL17RCx4 is prepared for ligand staining by resuspension with Versene (Invitrogen cat. 15040-066), equilibrating to 2×10e5 cells/100 ul, pelleting, and resuspension in the ligand/soluble receptor pre-mix. Stained cells are incubated at 4° for 30 minutes, washed 1× in staining media, and stained with Streptavidin-PE (BD Pharmingen cat. 554061) at a 1:100 ratio. Cells are incubated at 4° in the dark for 30 minutes, washed 2× in staining media, and re-suspended in a 1:1 ratio of staining media and Cytofix (BD Bioscience 554655). The BD LSRII Flow Cytometer or similar instrument is used for data collection and analysis. FIG. 5 depicts a standard graph. The graph was generated using the Prizm software program. The Y values represent the MFI normalized to maximum and minimum (100% and 0%) based on ligand only and no ligand/no soluble receptor control wells, and thus the percent binding of the ligand to the cells. The software calculates the IC50 for each curve.

In another experiment the target is T5, human IL-17F (human, UniProt Q96PD4 31-163).
T5 construct: also called hIL-17F; hIL17F
T5 sequence: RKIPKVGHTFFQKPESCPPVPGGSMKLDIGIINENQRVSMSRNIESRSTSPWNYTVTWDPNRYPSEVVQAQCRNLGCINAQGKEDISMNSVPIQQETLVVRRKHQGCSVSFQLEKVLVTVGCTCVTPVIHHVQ
In words: cell-based competition binding, FACS. As to the method: as §2

In general, IC50 refers to the concentration needed to halve the response being measured.

B1: human IL-17D (ligand, UniProt Q8TAD2 18-202, looked up)
chain: APRAGRRPARPRGCADRPEELLEQLYGRLAAGVLSAFHHTLQLGPREQARNASCPAGGRPADRRFRPPTNLRSVSPWAYRISYDPARYPRYLPEAYCLCRGCLTGLFGEEDVRFRSAPVYMPTVVLRRTPACAGGRSVYTEAYVTIPVGCTCVPEPEKDADSINSSIDKQGAKLLLGPNDAPAGP
notes: also called hIL-17D
Consider B1, for which the figures for the binding result in experiment [1] and in experiment [2] were “no binding” and “no binding (tested: 100 fold molar excess)”, respectively.

B2: human IL-17C (ligand, UniProt Q9P0M4 19-197, looked up)
chain: HHDPSLRGHPHSHGTPHCYSAEELPLGQAPPHLLARGAKWGQALPVALVSSLEAASHRGRHERPSATTQCPVLRPEEVLEADTHQRSISPWRYRVDTDEDRYPQKLAFAECLCRGCIDARTGRETAALNSVRLLQSLLVLRRRPCSRDGSGLPTPGAFAFHTEFIHVPVGCTCVLPRSV
notes: also called hIL-17C
As to B2, the binding result in experiment [2] is recorded as “no binding (tested: 100 fold molar excess)”.

B3: murine IL-17F (ligand)
chain: RKNPKAGVPALQKAGNCPPLEDNTVRVDIRIFNQNQGISVPREFQNRSSSPWDYNITRDPHRFPSEIAEAQCRHSGCINAQGQEDSTMNSVAIQQEILVLRREPQGCSNSFRLEKMLLKVGCTCVKPIVHQAA
notes: also called mIL-17F; mIL17F
Regarding B3, the values for the binding result in experiment [3] and in experiment [4] were “no binding” and “binds”, respectively.

B4: Variant 1390 (Fc fusion)
chain: LERLVGPQDATHCSPGLSCRLWDSDILCLPGDIVPAPGPVLAPTHLQTELVLRCQKETDCDLCLRVAVHLAVHGHWEEPEDEEKFGGAADSGVEEPRNASLQAQVVLSFQAYPTARCVLLEVQVPAALVQFGQSVGSVVYDCFEAALGSEVRIWSYTQPRYEKELNHTQQLPALPWLNVSADGDNVHLVLNVSEEQHFGLSLYWNQVQGPPKPRWHKNLTGPQIITLNHTDLVPCLCIQVWPLEPDSVRTNICPFREDPRAHQNLWQAARLRLLTLQSWLLDAPCSLPAEAALCWRAPGGDPCQPLVPPLSWENVTVDKVLEFPLLKGHPNLCVQVNSSEKLQLQECLWADSLGPLKDDVLLLETRGPQDNRSLCALEPSGCTSLPSKASTRAARLGEYLLQDLQSGQCLQLWDDDLGALWACPMDKYIHKEPKSSDKTHTCPPCPAPEAEGAPSVFLFPPKPKDTLMISRTPEVTCVVVDVSHEDPEVKFNWYVDGVEVHNAKTKPREEQYNSTYRVVSVLTVLHQDWLNGKEYKCKVSNKALPSSIEKTISKAKGQPREPQVYTLPPSRDELTKNQVSLTCLVKGFYPSDIAVEWESNGQPENNYKTTPPVLDSDGSFFLYSKLTVDKSRWQQGNVFSCSVMHEALHNHYTQKSLSLSPGK
notes: The entry may include the signal peptide; also called IL17RC 1390
B4: the IC50 came to 12 µg/mL with human IL-17A and 9 µg/mL with human IL-17F.

B5: Variant 1459 (Fc fusion)
chain: AERLVGPQDATHCSPGLSCRLWDSDILCLPGDIVPAPGPVLAPTHLQTELVLRCQKETDCDLCLRVAVHLAVHGHWEEPEDEEKFGGAADSGVEEPRNASLQAQVVLSFQAYPTARCVLLEVQVPAALVQFGQSVGSVVYDCFEAALGSEVRIWSYTQPRYEKELNHTQQLPALPWLNVSADGDNVHLVLNVSEEQHFGLSLYWNQVQGPPKPRWHKNLTGPQIITLNHTDLVPCLCIQVWPLEPDSVRTNICPFREDPRAHQNLWQAARLRLLTLQSWLLDAPCSLPAEAALCWRAPGGDPCQPLVPPLSWENVTVDKVLEFPLLKGHPNLCVQVNSSEKLQLQECLWADSLGPLKDDVLLLETRGPQDNRSLCALEPSGCTSLPSKASTRAARLGEYLLQDLQSGQCLQLWDDDLGALWACPMDKYIHKEPKSSDKTHTCPPCPAPEAEGAPSVFLFPPKPKDTLMISRTPEVTCVVVDVSHEDPEVKFNWYVDGVEVHNAKTKPREEQYNSTYRVVSVLTVLHQDWLNGKEYKCKVSNKALPSSIEKTISKAKGQPREPQVYTLPPSRDELTKNQVSLTCLVKGFYPSDIAVEWESNGQPENNYKTTPPVLDSDGSFFLYSKLTVDKSRWQQGNVFSCSVMHEALHNHYTQKSLSLSPGK
notes: The entry may include the signal peptide; also called IL17RC 1459
Turning to B5, the concentration for half-maximal inhibition (IC50) in the experiment with human IL-17A is 126 µg/mL; with human IL-17F, 103 µg/mL.

B6: human IL-17E (ligand, UniProt Q9H293 33-177, looked up)
chain: YSHWPSCCPSKGQDTSEELLRWSTVPVPPLEPARPNRHPESCRASEDGPLNSRAISPWRYELDRDLNRLPQDLYHARCLCPHCVSLQTGSHMDPRGNSELLYHNQTVFYRRPCHGEKGTHKGYCLERRLYRVSLACVCVRPRVMG
notes: also called hIL-17E
In the case of B6, the binding result is listed as “no binding” in experiment [1] and “no binding (tested: 100 fold molar excess)” in experiment [2].

These data come from patent US20110014656A1 (ZymoGenetics, published 2011).
